Results on 5 molecules are retold here after paper PMC4267625, “Ubiquitin recognition by FAAP20 expands the complex interface beyond the canonical UBZ domain” (Nucleic Acids Research, 2014).

The labels stand for the following.
B1: human FAAP20 UBZ (residues 140-180 of FAAP20 isoform 2), wild type (domain or fragment, UniProt Q6NZ36 140-180, looked up)
chain: GAAALRSCPMCQKEFAPRLTQLDVDSHLAQCLAESTEDVTW
notes: ends at the C-terminal W180; ZnSO4 was added at induction; 15N/13C-labelled for NMR; also called WT FAAP20; apo FAAP20; source: E. coli BL21 STAR (DE3), purified (Ni-NTA, TEV cleavage, second Ni-NTA, Superdex 75); not shown: His10, N-terminal, cleaved; GB1, N-terminal, cleaved
B2: human FAAP20 UBZ D164A (domain or fragment, UniProt Q6NZ36 140-180, looked up)
chain: GAAALRSCPMCQKEFAPRLTQLDVASHLAQCLAESTEDVTW
notes: source: E. coli BL21 STAR (DE3), purified (Ni-NTA, TEV cleavage, second Ni-NTA, Superdex 75); not shown: His10, N-terminal, cleaved; GB1, N-terminal, cleaved
B3: human FAAP20 UBZ L171A (domain or fragment, UniProt Q6NZ36 140-180, looked up)
chain: GAAALRSCPMCQKEFAPRLTQLDVDSHLAQCAAESTEDVTW
notes: as for B2
B4: human FAAP20 UBZ A168Y (domain or fragment, UniProt Q6NZ36 140-180, looked up)
chain: GAAALRSCPMCQKEFAPRLTQLDVDSHLYQCLAESTEDVTW
notes: as for B2
B5: human FAAP20 UBZ W180A (domain or fragment, UniProt Q6NZ36 140-180, looked up)
chain: GAAALRSCPMCQKEFAPRLTQLDVDSHLAQCLAESTEDVTA
notes: also called FAAP20 W180A mutant; source: E. coli BL21 STAR (DE3), purified (Ni-NTA, TEV cleavage, second Ni-NTA, Superdex 75); not shown: His10, N-terminal, cleaved; GB1, N-terminal, cleaved

The target in the assay is T1, human ubiquitin, wild type (human, UniProt P0CG48 1-76).
T1 construct: ubiquitin, human; the mature ubiquitin unit cut from its precursor; also called WT ubiquitin; source: E. coli BL21 STAR (DE3), purified (Ni-NTA, thrombin cleavage, benzamidine column, second Ni-NTA, Superdex 75); not shown: His6, N-terminal, cleaved
In words: ITC; ubiquitin (2-3 mM) titrated into FAAP20 (0.2-0.3 mM); 25 mM sodium phosphate, 100 mM KCl, pH 7.0; 25°C; 28 injections of 10 μl; one-site binding fit. Conditions: both partners purified. For orientation: ITC needs no label: the signal is the heat of the interaction.
What is called Kd is a measure of binding affinity in units of concentration. Low values mean higher affinity, high ones lower affinity. On to B1, for which the affinity, expressed as Kd, was 9.26 µM.

For the molecule B2, the Kd was greater than 600 µM.

On to B3, for which binding was characterised by a dissociation constant (Kd) of 529 µM.

B4 displayed a dissociation constant Kd greater than 600 µM.

In turn, B5 gave a dissociation constant Kd greater than 600 µM.
